Target: T1, RNF31 PUB domain (Homo sapiens, UniProt Q96EP0)
T1 construct: MBP-TEV (N, cleaved yes); made in house; host or cells: E. coli BL21 (DE3) pLysS
T1 sequence (Q96EP0 1-179): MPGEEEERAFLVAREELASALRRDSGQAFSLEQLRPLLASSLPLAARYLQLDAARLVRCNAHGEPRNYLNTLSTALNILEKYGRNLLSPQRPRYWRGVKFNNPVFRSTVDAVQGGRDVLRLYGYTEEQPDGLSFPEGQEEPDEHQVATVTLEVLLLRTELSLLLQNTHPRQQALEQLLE
Assay: Phage Library Screening with NGS, RNF31 PUB domain
Type: binding
Settings: for Phage library screen NGS readout, Target Concentration 10 / Phage library screen NGS readout, Target Concentration 30 / Phage library screen NGS readout, Target Concentration 100 / Phage library screen NGS readout, Target Concentration 300 / Phage library screen NGS readout, Target Concentration 1000: RNF31 PUB domain clusters C41-C45; for Phage library screen NGS readout, BLANK: clusters C41-C45

[1] = target concentration 1000, first column
[2] = target concentration 1000, second column

Row | Sequence | Phage library screen NGS readout, Target Concentration 10 | Phage library screen NGS readout, Target Concentration 30 | Phage library screen NGS readout, Target Concentration 100 | Phage library screen NGS readout, Target Concentration 300 | Phage library screen NGS readout, Target Concentration 1000 [1] | Phage library screen NGS readout, Target Concentration 1000 [2] | Phage library screen NGS readout, BLANK (column 1 of 5) | Phage library screen NGS readout, BLANK (column 2 of 5) | Phage library screen NGS readout, BLANK (column 3 of 5) | Phage library screen NGS readout, BLANK (column 4 of 5) | Phage library screen NGS readout, BLANK (column 5 of 5)
1 | DPAADDCEWAALYCSFH | 2 | 0 | 0 | 3 | 3 | 8 | 2 | 9 | 0 | 2 | 3
2 | DPAADQCDIAAFVCSTY | 0 | 0 | 0 | 4 | 26 | 17 | 0 | 0 | 0 | 0 | 0
3 | DPAAEDCHIAAMVCMTY | 0 | 4 | 0 | 12 | 46 | 67 | 0 | 0 | 0 | 0 | 0
4 | DPAAWECHIAAFVCSTY | 1 | 1 | 0 | 2 | 8 | 7 | 0 | 0 | 0 | 0 | 0
5 | DPADWDCMYAAQDCFED | 0 | 0 | 1 | 1 | 11 | 1 | 0 | 0 | 0 | 0 | 0
6 | DPAEDECDWAALYCDMQ | 0 | 0 | 0 | 1 | 7 | 6 | 0 | 0 | 0 | 0 | 0
7 | DPAEDECQDAAILCSYN | 1 | 3 | 0 | 7 | 19 | 6 | 1 | 0 | 0 | 0 | 1
8 | DPAEDWCMYAAWDCQME | 1 | 0 | 0 | 4 | 22 | 10 | 0 | 0 | 0 | 0 | 0
9 | DPAEEYCLEAAILCTYD | 0 | 0 | 1 | 14 | 44 | 32 | 0 | 0 | 0 | 0 | 0
10 | DPAEQFCLYAAYDCYSE | 2 | 0 | 0 | 2 | 18 | 9 | 1 | 3 | 1 | 0 | 0
11 | DPAEWDCLYAAFDCFAN | 2 | 2 | 0 | 3 | 15 | 7 | 0 | 0 | 0 | 0 | 0
12 | DPAFAQCEVAAMVCTTY | 0 | 0 | 0 | 2 | 5 | 6 | 0 | 0 | 0 | 0 | 0
13 | DPAFDWCLYAADDCAET | 1 | 0 | 0 | 3 | 31 | 12 | 0 | 0 | 0 | 0 | 1
14 | DPAFHDCQFAAAVCSTY | 0 | 0 | 0 | 3 | 26 | 26 | 0 | 0 | 0 | 0 | 0
15 | DPAFMDCVFAAAVCATY | 0 | 0 | 0 | 2 | 8 | 8 | 0 | 1 | 1 | 0 | 0
16 | DPAFQFCVEAAVACSYY | 0 | 0 | 0 | 6 | 9 | 5 | 0 | 0 | 0 | 0 | 4
17 | DPAFTDCQLAAAVCMTY | 0 | 0 | 3 | 31 | 161 | 145 | 1 | 2 | 0 | 0 | 0
18 | DPAFWACLYAAEECVVD | 0 | 0 | 0 | 3 | 6 | 9 | 1 | 0 | 0 | 0 | 1

Source: US20240376151A1, “STAPLED PEPTIDES AND METHODS THEREOF” (FOG PHARMACEUTICALS, INC., priority 2022, published 2024)
